Results as given in patent US20230035859A1, “COMPOSITIONS AND METHODS FOR EPITOPE SCANNING” (priority 2019, published 2023).

Assays:
[1] = target: QuickSwitch Quant HLA-A*02:01 Tetramers (PE or APC labeled) (MBL International), A*02:0; test: QuickSwitch Quant tetramer control peptide exchange

| Binder | % Peptide Exchange [1] | EpiScan MFI (HLA-A*02:01 (human)) |
| --- | --- | --- |
| SLPGVFCGV (modifications not checked) | 98% | 6.42 |
| YIDIGNYTV (modifications not checked) | 97.9% | 4.42 |
| TLATHGLAAV (modifications not checked) | 98% | 4.04 |
| AMDEFIERYKL (modifications not checked) | 96.9% | 2.35 |
| VMAYITGGVV (modifications not checked) | 99.1% | 4.64 |
| VMVELVAEL (modifications not checked) | 98.6% | 5.34 |
| VLYQDVNCTEV (modifications not checked) | 97.9% | 5.6 |
| VMAYITGGV (modifications not checked) | 99.1% | 4.53 |
